Reference: the supplement of paper PMC9116672
± gives the standard deviation of the averaged measurements or the uncertainty stated by the source.

Tests used:
[1] = duplex melting temperature (HRM, EvaGreen); higher = more stable duplex
Procedure: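 Listed DNA strand annealed 1:1 with its complementary strand (95 °C 5 min, 0.1 °C/s to 20 °C). Melted in 1x NNE buffer (500 mM NaCl, 10 mM Na2HPO4, 1 mM EDTA, pH 7.0) with 1x EvaGreen on a LightCycler96 (37 to 97 °C, 0.1 °C/s). Tm is the peak of -dF/dT at the stated total duplex concentration; 4 replicates are averaged. PS oligos are non-stereospecific (Rp/Sp mixtures).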

[2] = duplex formation free energy ΔG50 (Van't Hoff fit of HRM Tm); higher = less stable duplex; settings: temperature for dG: 50 °C, NaCl: 500 mM (unadjusted)
Procedure: (§1)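 Duplex of the listed DNA strand with its complement, in 1x NNE buffer (500 mM NaCl, pH 7.0) with 1x EvaGreen. ΔH and ΔS come from a Van't Hoff linear fit of 1/Tm against ln(CT/4) over 1-20 uM, using HRM Tm values.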

[3] = duplex formation enthalpy ΔH (Van't Hoff fit of HRM Tm); higher = less exothermic duplex formation; settings: temperature for dG: 50 °C, NaCl: 500 mM (unadjusted)
Procedure: as §1

[4] = duplex formation entropy ΔS (Van't Hoff fit of HRM Tm); higher = smaller entropy loss on duplex formation; settings: temperature for dG: 50 °C, NaCl: 500 mM (unadjusted)
Procedure: as §1

[5] = duplex concentration 1 µM, backbone: PS-PO (listed strand fully phosphorothioate, complement phosphodiester)
[6] = duplex concentration 1 µM, backbone: PS-PS (both strands fully phosphorothioate)
[7] = duplex concentration 2.5 µM, backbone: PO-PO (both strands phosphodiester DNA)
[8] = duplex concentration 2.5 µM, backbone: PS-PO (listed strand fully phosphorothioate, complement phosphodiester)
[9] = duplex concentration 2.5 µM, backbone: PS-PS (both strands fully phosphorothioate)
[10] = duplex concentration 5 µM, backbone: PO-PO (both strands phosphodiester DNA)
[11] = duplex concentration 5 µM, backbone: PS-PO (listed strand fully phosphorothioate, complement phosphodiester)
[12] = duplex concentration 5 µM, backbone: PS-PS (both strands fully phosphorothioate)
[13] = duplex concentration 7.5 µM, backbone: PO-PO (both strands phosphodiester DNA)
[14] = duplex concentration 7.5 µM, backbone: PS-PO (listed strand fully phosphorothioate, complement phosphodiester)
[15] = duplex concentration 7.5 µM, backbone: PS-PS (both strands fully phosphorothioate)
[16] = duplex concentration 10 µM, backbone: PO-PO (both strands phosphodiester DNA)
[17] = duplex concentration 10 µM, backbone: PS-PO (listed strand fully phosphorothioate, complement phosphodiester)
[18] = duplex concentration 10 µM, backbone: PS-PS (both strands fully phosphorothioate)
[19] = duplex concentration 15 µM, backbone: PO-PO (both strands phosphodiester DNA)
[20] = duplex concentration 15 µM, backbone: PS-PO (listed strand fully phosphorothioate, complement phosphodiester)
[21] = duplex concentration 15 µM, backbone: PS-PS (both strands fully phosphorothioate)
[22] = duplex concentration 20 µM, backbone: PO-PO (both strands phosphodiester DNA)
[23] = duplex concentration 20 µM, backbone: PS-PO (listed strand fully phosphorothioate, complement phosphodiester)
[24] = duplex concentration 20 µM, backbone: PS-PS (both strands fully phosphorothioate)
[25] = backbone: PO-PO (both strands phosphodiester DNA)
[26] = backbone: PS-PO (listed strand fully phosphorothioate, complement phosphodiester)
[27] = backbone: PS-PS (both strands fully phosphorothioate)
[28] = duplex concentration 1 µM, backbone: PO-PO (both strands phosphodiester DNA)

Row | Sequence | duplex melting temperature [1, 5] [°C] | duplex melting temperature [1, 6] [°C] | duplex melting temperature [1, 7] [°C] | duplex melting temperature [1, 8] [°C] | duplex melting temperature [1, 9] [°C] | duplex melting temperature [1, 10] [°C] | duplex melting temperature [1, 11] [°C] | duplex melting temperature [1, 12] [°C] | duplex melting temperature [1, 13] [°C] | duplex melting temperature [1, 14] [°C] | duplex melting temperature [1, 15] [°C] | duplex melting temperature [1, 16] [°C] | duplex melting temperature [1, 17] [°C] | duplex melting temperature [1, 18] [°C] | duplex melting temperature [1, 19] [°C] | duplex melting temperature [1, 20] [°C] | duplex melting temperature [1, 21] [°C] | duplex melting temperature [1, 22] [°C] | duplex melting temperature [1, 23] [°C] | duplex melting temperature [1, 24] [°C] | duplex formation free energy ΔG50 [2, 25] [kcal/mol] | duplex formation free energy ΔG50 [2, 26] [kcal/mol] | duplex formation free energy ΔG50 [2, 27] [kcal/mol] | duplex formation enthalpy ΔH [3, 25] [kcal/mol] | duplex formation enthalpy ΔH [3, 26] [kcal/mol] | duplex formation enthalpy ΔH [3, 27] [kcal/mol] | duplex formation entropy ΔS [4, 25] [cal/mol/K] | duplex formation entropy ΔS [4, 26] [cal/mol/K] | duplex formation entropy ΔS [4, 27] [cal/mol/K] | duplex melting temperature [1, 28] [°C]
1 | AGCACGGTGGTACAACA | 60.27 ± 0.38 | 50.09 ± 0.18 | 67.58 ± 0.38 | 63.2 ± 0.2 | 53.82 ± 0.069 | 69.83 ± 0.28 | 65.28 ± 0.1 | 56.17 ± 0.085 | 71.17 ± 0.15 | 66.25 ± 0.082 | 57.1 ± 0.12 | 72.2 ± 0.18 | 67.06 ± 0.081 | 57.92 ± 0.08 | 73.4 ± 0.13 | 68.18 ± 0.11 | 59.07 ± 0.11 | 74.39 ± 0.17 | 69.05 ± 0.15 | 59.74 ± 0.13 | -12.8 ± 0.17 | -12.23 ± 0.093 | -9.892 ± 0.075 | -71.3 ± 2.6 | -78.6 ± 2 | -67.6 ± 3.5 | -181 ± 7.5 | -205 ± 5.8 | -179 ± 11 | –
2 | GCCCGAGCATGACTGCG | 65.4 ± 0.24 | 59.02 ± 0.17 | 75.41 ± 0.19 | 68.14 ± 0.36 | 61.59 ± 0.3 | 76.97 ± 0.085 | 70 ± 0.11 | 63.37 ± 0.21 | 77.92 ± 0.1 | 71.104 ± 0.068 | 64.41 ± 0.16 | 78.54 ± 0.1 | 71.926 ± 0.031 | 65.09 ± 0.084 | 79.72 ± 0.12 | 73.02 ± 0.13 | 66.12 ± 0.12 | 80.63 ± 0.26 | 73.82 ± 0.14 | 66.8 ± 0.27 | -16.3 ± 0.36 | -13.6 ± 0.11 | -12.16 ± 0.1 | -98.8 ± 4.5 | -83.7 ± 1.9 | -86.9 ± 2.4 | -255 ± 13 | -217 ± 5.5 | -231 ± 7.1 | –
3 | AGAGCGCCCTGCTGCC | – | 61.69 ± 0.3 | 76.76 ± 0.43 | 69.05 ± 0.38 | 64.26 ± 0.22 | 78.81 ± 0.32 | 71.34 ± 0.29 | 66.24 ± 0.22 | 79.83 ± 0.11 | 72.67 ± 0.34 | 67.29 ± 0.24 | 80.68 ± 0.17 | 73.6 ± 0.23 | 68.17 ± 0.076 | 81.9 ± 0.28 | 74.83 ± 0.1 | 69.33 ± 0.14 | 82.78 ± 0.25 | 75.7 ± 0.12 | 70.195 ± 0.058 | -15.8 ± 0.28 | -13.3 ± 0.17 | -12.59 ± 0.085 | -86.9 ± 3.2 | -74.4 ± 2.6 | -80.8 ± 1.7 | -220 ± 9 | -189 ± 7.4 | -211 ± 5 | –
4 | CCCAGGCCTCGGATTTA | 61.72 ± 0.53 | 56.81 ± 0.12 | 71.02 ± 0.086 | 64.52 ± 0.19 | 59.77 ± 0.087 | 73.09 ± 0.13 | 66.7 ± 0.3 | 61.69 ± 0.093 | 74.25 ± 0.19 | 67.99 ± 0.22 | 62.78 ± 0.14 | 75.215 ± 0.05 | 68.759 ± 0.049 | 63.54 ± 0.15 | 76.343 ± 0.055 | 70.047 ± 0.069 | 64.73 ± 0.092 | 77.12 ± 0.096 | 71.04 ± 0.25 | 65.39 ± 0.35 | -14.1 ± 0.15 | -12.37 ± 0.061 | -11.41 ± 0.078 | -80.8 ± 2.1 | -74.2 ± 1.2 | -77.5 ± 2.1 | -206 ± 6.1 | -191 ± 3.5 | -205 ± 6.3 | –
5 | GTGAAACAATGCTGTAG | – | 43.88 ± 0.29 | 62.87 ± 0.2 | 56.26 ± 0.25 | 46.82 ± 0.2 | 65.1 ± 0.46 | 58.51 ± 0.13 | 48.72 ± 0.15 | 66.14 ± 0.17 | 59.58 ± 0.12 | 49.72 ± 0.1 | 67.07 ± 0.17 | 60.43 ± 0.12 | 50.48 ± 0.19 | 68.31 ± 0.14 | 61.59 ± 0.25 | 51.63 ± 0.11 | 69.27 ± 0.11 | 62.36 ± 0.4 | 52.66 ± 0.18 | -12.1 ± 0.14 | -10.63 ± 0.061 | -8.41 ± 0.018 | -76.6 ± 3 | -75.5 ± 2 | -72.1 ± 2 | -199 ± 8.8 | -201 ± 6.2 | -197 ± 6.4 | 60.8
6 | CGACATGTATGGCACAG | 58.38 ± 0.3 | 50.2 ± 0.26 | 67.76 ± 0.17 | 60.82 ± 0.11 | 53.07 ± 0.18 | 69.89 ± 0.28 | 62.71 ± 0.088 | 55.02 ± 0.11 | 70.97 ± 0.12 | 63.78 ± 0.073 | 56.02 ± 0.081 | 71.86 ± 0.14 | 64.547 ± 0.024 | 56.75 ± 0.13 | 73.04 ± 0.17 | 65.56 ± 0.091 | 57.63 ± 0.092 | 73.85 ± 0.16 | 66.343 ± 0.048 | 58.35 ± 0.083 | -13.17 ± 0.12 | -11.9 ± 0.052 | -9.881 ± 0.049 | -77.2 ± 2 | -84.2 ± 1.3 | -79.1 ± 2.7 | -198 ± 5.8 | -224 ± 3.8 | -214 ± 8.2 | 64.55 ± 0.5
7 | AATGAGGAGTGAAATGG | 54.3 ± 0.28 | 45.74 ± 0.18 | 62.9 ± 0.89 | 57.29 ± 0.22 | 48.55 ± 0.12 | 65.1 ± 0.71 | 59.317 ± 0.05 | 50.54 ± 0.062 | 66.06 ± 0.59 | 60.42 ± 0.089 | 51.494 ± 0.05 | 67.14 ± 0.48 | 61.271 ± 0.056 | 52.36 ± 0.1 | 68.46 ± 0.62 | 62.43 ± 0.043 | 53.52 ± 0.054 | 69.63 ± 0.3 | 63.28 ± 0.098 | 54.406 ± 0.047 | -12 ± 0.16 | -10.83 ± 0.037 | -8.817 ± 0.012 | -73.5 ± 3.3 | -75.7 ± 1.2 | -72.8 ± 1.3 | -190 ± 9.7 | -201 ± 3.6 | -198 ± 4 | 61.5
8 | CCGTTGCTGCTAGG | – | 45.8 ± 0.71 | 65.75 ± 0.21 | 59.6 | 49.3 ± 1.4 | 68 ± 0.31 | 61.1 ± 1 | 53.433 ± 0.0017 | 69.13 ± 0.18 | 63.1 ± 0.69 | 56 | 70.55 ± 0.22 | 63.92 ± 0.4 | 57.4 | 71.88 ± 0.22 | 65.35 ± 0.083 | 60.5 | 72.82 ± 0.098 | 65.77 ± 0.2 | 61.75 ± 0.28 | -12.3 ± 0.25 | -11.1 ± 0.33 | -9.23 ± 0.051 | -67.8 ± 4.5 | -69.4 ± 7.8 | -40.7 ± 2.5 | -172 ± 13 | -180 ± 23 | -97.4 ± 7.7 | –
9 | GTGAGCAGAAGGGGTT | 59.41 ± 0.21 | 51.01 ± 0.18 | 66.59 ± 0.48 | 62.57 ± 0.13 | 54.75 ± 0.25 | 68.752 ± 0.066 | 64.68 ± 0.15 | 56.88 ± 0.17 | 70.17 ± 0.27 | 66 ± 0.37 | 58.06 ± 0.31 | 71.2 ± 0.18 | 66.75 ± 0.18 | 58.956 ± 0.043 | 72.73 ± 0.15 | 68.05 ± 0.21 | 60.17 ± 0.3 | 73.73 ± 0.092 | 69.05 ± 0.47 | 60.93 ± 0.33 | -12.7 ± 0.19 | -11.81 ± 0.093 | -10.06 ± 0.071 | -71 ± 3.3 | -71.4 ± 2 | -66.3 ± 3 | -180 ± 9.6 | -184 ± 6 | -174 ± 8.9 | 64.4 ± 0.57
